Test results published in article PMC3760615 (The Journal of Cell Biology, 2013).

Biological target: T1, recombinant His-tagged drebrin ADFH-CC construct (human, UniProt Q16643 1-256)
T1 sequence: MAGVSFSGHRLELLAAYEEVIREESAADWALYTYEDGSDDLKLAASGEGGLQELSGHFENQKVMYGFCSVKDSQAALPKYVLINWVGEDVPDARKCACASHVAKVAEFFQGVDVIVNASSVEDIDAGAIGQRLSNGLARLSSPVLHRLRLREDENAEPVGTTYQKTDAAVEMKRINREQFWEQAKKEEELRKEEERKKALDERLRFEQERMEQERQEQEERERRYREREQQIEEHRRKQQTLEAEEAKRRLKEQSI
Experiment: co-sedimentation

binding result: binds
B1: recombinant His-tagged drebrin BB (blue box) domain (domain or fragment)
chain: VLAAPVEPATADATEIHDAADTIETDTATADTTVANNVPPAATSLIDLWPGNGEGASTLQGEPRAPTPPSGTEVTLAEVPLLDEVAPEPLLPAGEGCATLLNFDELPEPPATFCDPEEVEGESLAAPQTPTLPSALEELEQEQEPEPHLLTNGETTQKEGTQASEGYFSQSQEEEFAQSEELCAKAPPPVFYNKPPEIDITCWDADPVPEEEEGFEGGD
